From patent publication US20170260249A1 (IMMATICS BIOTECHNOLOGIES, published 2017)

Target: HLA-A*02:01 (peptide-receptive MHC class I molecule, heavy chain with beta-2-microglobulin) (human)
Assay: UV-ligand exchange, anti-b2m ELISA; peptide exchange yield grade (>10% = +; >20% = ++; >50 = +++; >75% = ++++)
From the text: Candidate peptides for T cell based therapies according to the present invention were further tested for their MHC binding capacity (affinity). The individual peptide-MHC complexes were produced by UV-ligand exchange, where a UV-sensitive peptide is cleaved upon UV-irradiation, and exchanged with the peptide of interest as analyzed. Only peptide candidates that can effectively bind and stabilize the peptide-receptive MHC molecules prevent dissociation of the MHC complexes. To determine the yield of the exchange reaction, an ELISA was performed based on the detection of the light chain (β2m) of stabilized MHC complexes. The assay was performed as generally described in Rodenko et al. (Rodenko et al., 2006).
96 well MAXISorp plates (NUNC) were coated over night with 2 ug/ml streptavidin in PBS at room temperature, washed 4× and blocked for 1 h at 37° C. in 2% BSA containing blocking buffer. Refolded HLA-A*02:01/MLA-001 monomers served as standards, covering the range of 15-500 ng/ml. Peptide-MHC monomers of the UV-exchange reaction were diluted 100 fold in blocking buffer. Samples were incubated for 1 h at 37° C., washed four times, incubated with 2 ug/ml HRP conjugated anti-β2m for 1 h at 37° C., washed again and detected with TMB solution that is stopped with […]. Absorption was measured at 450 nm. Candidate peptides that show a high exchange yield (preferably higher than 50%, most preferred higher than 75%) are generally preferred for a generation and production of antibodies or fragments thereof, and/or T cell receptors or fragments thereof, as they show sufficient avidity to the MHC molecules and prevent dissociation of the MHC complexes.

## GLVEQLYDL (synthetic peptide; source gene NOC2L) [GLVEQLYDL (SEQ ID NO: 47)]
  peptide exchange yield: 50 to 75%

## YLETMNITL (synthetic peptide; source gene PGM2L1) [YLETMNITL (SEQ ID NO: 19)]
  peptide exchange yield: 50 to 75%

## ALISEKLETL (synthetic peptide; source gene DNAJC10) [ALISEKLETL (SEQ ID NO: 52)]
  peptide exchange yield: 50 to 75%

## VLLHVSVLL (synthetic peptide; source gene ZDHHC24) [VLLHVSVLL (SEQ ID NO: 45)]
  peptide exchange yield: 20 to 50%

## VLGPEGQLV (synthetic peptide; source gene GLYATL2) [VLGPEGQLV (SEQ ID NO: 21)]
  peptide exchange yield: 50 to 75%

## FLSGYYVTL (synthetic peptide; source gene TMEM101) [FLSGYYVTL (SEQ ID NO: 42)]
  peptide exchange yield: > 75%

## RLDIQGTGQLL (synthetic peptide; source gene PIGR) [RLDIQGTGQLL (SEQ ID NO: 4)]
  peptide exchange yield: 50 to 75%

## ALDGKIYEL (synthetic peptide; source gene ARHGAP5) [ALDGKIYEL (SEQ ID NO: 39)]
  peptide exchange yield: 50 to 75%

## ILAETQPEL (synthetic peptide; source gene STX18) [ILAETQPEL (SEQ ID NO: 48)]
  peptide exchange yield: 50 to 75%

## SVMELLQGV (synthetic peptide; source gene TRIM5) [SVMELLQGV (SEQ ID NO: 8)]
  peptide exchange yield: > 75%

## RILDIDIPLSV (synthetic peptide; source gene TFCP2L1) [RILDIDIPLSV (SEQ ID NO: 38)]
  peptide exchange yield: 50 to 75%

## GLLGGVIMMV (synthetic peptide; source gene SLC39A7) [GLLGGVIMMV (SEQ ID NO: 40)]
  peptide exchange yield: > 75%

## SILSLLIKL (synthetic peptide; source gene UBR3) [SILSLLIKL (SEQ ID NO: 7)]
  peptide exchange yield: 20 to 50%

## GLIENTYQL (synthetic peptide; source gene RNF175) [GLIENTYQL (SEQ ID NO: 32)]
  peptide exchange yield: 50 to 75%

## VLLATVTEL (synthetic peptide; source gene SLC35E1) [VLLATVTEL (SEQ ID NO: 37)]
  peptide exchange yield: 50 to 75%

## TLLDRVAVI (synthetic peptide; source gene FRG1B) [TLLDRVAVI (SEQ ID NO: 30)]
  peptide exchange yield: 50 to 75%

## ALAPSEGVQAA (synthetic peptide; source gene MSX1) [ALAPSEGVQAA (SEQ ID NO: 12)]
  peptide exchange yield: > 75%

## TLLPTLYEI (synthetic peptide; source gene RNF180) [TLLPTLYEI (SEQ ID NO: 35)]
  peptide exchange yield: 50 to 75%

## SLFDEVRQI (synthetic peptide; source gene STX18) [SLFDEVRQI (SEQ ID NO: 5)]
  peptide exchange yield: > 75%

## KLWEESTAQV (synthetic peptide; source gene C1orf173) [KLWEESTAQV (SEQ ID NO: 17)]
  peptide exchange yield: 50 to 75%

## VLLDIFTGV (synthetic peptide; source gene LIG3) [VLLDIFTGV (SEQ ID NO: 2)]
  peptide exchange yield: > 75%

## TLSTVIATV (synthetic peptide; source gene ATN1) [TLSTVIATV (SEQ ID NO: 50)]
  peptide exchange yield: > 75%

## YIDDIFSGV (synthetic peptide; source gene TEX9) [YIDDIFSGV (SEQ ID NO: 41)]
  peptide exchange yield: > 75%

## VIANEIEKV (synthetic peptide; source gene APOL4) [VIANEIEKV (SEQ ID NO: 43)]
  peptide exchange yield: 50 to 75%

## KLLDNLHDL (synthetic peptide; source gene PGR) [KLLDNLHDL (SEQ ID NO: 1)]
  peptide exchange yield: > 75%

## VLVSSVLGV (synthetic peptide; source gene SIGIRR) [VLVSSVLGV (SEQ ID NO: 22)]
  peptide exchange yield: 50 to 75%

## ALDPIIHGL (synthetic peptide; source gene PTPRG) [ALDPIIHGL (SEQ ID NO: 11)]
  peptide exchange yield: > 75%

## GLDEAIRKV (synthetic peptide; source gene GLYATL2) [GLDEAIRKV (SEQ ID NO: 28)]
  peptide exchange yield: 50 to 75%

## SLLSDIIAL (synthetic peptide; source gene PIGQ) [SLLSDIIAL (SEQ ID NO: 36)]
  peptide exchange yield: 50 to 75%

## AILDVVVNL (synthetic peptide; source gene RFX3) [AILDVVVNL (SEQ ID NO: 10)]
  peptide exchange yield: > 75%

## VMHDSSFSV (synthetic peptide; source gene ADNP2) [VMHDSSFSV (SEQ ID NO: 53)]
  peptide exchange yield: > 75%

## FLNGLEILL (synthetic peptide; source gene MDN1) [FLNGLEILL (SEQ ID NO: 44)]
  peptide exchange yield: > 75%

## ALLGFVTDL (synthetic peptide; source gene ATP2B4) [ALLGFVTDL (SEQ ID NO: 20)]
  peptide exchange yield: > 75%

## TLSDVVVGL (synthetic peptide; source gene ELP4) [TLSDVVVGL (SEQ ID NO: 54)]
  peptide exchange yield: 50 to 75%

## AIAGRLLGV (synthetic peptide; source gene CLCN5) [AIAGRLLGV (SEQ ID NO: 34)]
  peptide exchange yield: > 75%

## IGIGPVLNI (synthetic peptide; source gene TMLHE) [IGIGPVLNI (SEQ ID NO: 29)]
  peptide exchange yield: 10 to 20%

## SLYPGTETM (synthetic peptide; source gene SVIL) [SLYPGTETM (SEQ ID NO: 9)]
  peptide exchange yield: 50 to 75%

## SLLSELVEA (synthetic peptide; source gene KLHDC5) [SLLSELVEA (SEQ ID NO: 6)]
  peptide exchange yield: > 75%

B1: GLGPNLVGV (SEQ ID NO: 23) (peptide)
peptide: GLGPNLVGV
notes: synthetic peptide; source genes SLC25A36, SLC25A33
  peptide exchange yield: > 75%

## ALLELLHEL (synthetic peptide; source gene LEMD2) [ALLELLHEL (SEQ ID NO: 49)]
  peptide exchange yield: > 75%

## KLNSSIQYV (synthetic peptide; source gene PKHD1L1) [KLNSSIQYV (SEQ ID NO: 16)]
  peptide exchange yield: 50 to 75%

## SMTTNLDLKV (synthetic peptide; source gene TMEM202) [SMTTNLDLKV (SEQ ID NO: 33)]
  peptide exchange yield: 20 to 50%

## ALLTAVTNV (synthetic peptide; source gene LEMD2) [ALLTAVTNV (SEQ ID NO: 31)]
  peptide exchange yield: 50 to 75%

## FLVDSLISA (synthetic peptide; source gene HOXD10) [FLVDSLISA (SEQ ID NO: 14)]
  peptide exchange yield: > 75%

## GLDGATYTV (synthetic peptide; source gene SEMA4C) [GLDGATYTV (SEQ ID NO: 3)]
  peptide exchange yield: 50 to 75%

## VLNPETTVV (synthetic peptide; source gene PAPSS1) [VLNPETTVV (SEQ ID NO: 27)]
  peptide exchange yield: 50 to 75%

## ILDAQTAFV (synthetic peptide; source gene ABCC1) [ILDAQTAFV (SEQ ID NO: 24)]
  peptide exchange yield: 50 to 75%

## TVPPVFVSV (synthetic peptide; source gene KCNMA1) [TVPPVFVSV (SEQ ID NO: 51)]
  peptide exchange yield: 50 to 75%

## NMDDVIYYV (synthetic peptide; source gene RNF145) [NMDDVIYYV (SEQ ID NO: 46)]
  peptide exchange yield: 50 to 75%

## ALQNKVVAL (synthetic peptide; source gene NXNL2) [ALQNKVVAL (SEQ ID NO: 13)]
  peptide exchange yield: 50 to 75%

## GLLSVELRV (synthetic peptide; source gene DCHS2) [GLLSVELRV (SEQ ID NO: 15)]
  peptide exchange yield: > 75%

B2: ILLELFTHV (SEQ ID NO: 25) (peptide)
peptide: ILLELFTHV
notes: synthetic peptide; source genes FBXO6, FBXO44
  peptide exchange yield: > 75%

## SVLAGVVGV (synthetic peptide; source gene GUCY1A2) [SVLAGVVGV (SEQ ID NO: 26)]
  peptide exchange yield: > 75%
